Assay results as given in patent US20190040102A1 (CDRD VENTURES, published 2019).
Values belong to the binder of their own block, whether it stands above or below them. Starred links: 1 amine or outer side, 2 acyl side, 3 side chain; linkers in the order of their positions; H or OH if unused. Positions of bridges follow the written chain, without caps; N, C: chain ends. Non-standard residues stand in square brackets, D forms with d. *: point of attachment. dPhe(4-phenylureido) = D-4-(phenylureido)Phe, O=C(Nc1ccccc1)Nc1ccc(C[C@@H](N[*:1])C(=O)[*:2])cc1; dPhe(4-CONH2) = NC(=O)c1ccc(C[C@@H](N)C(=O)O)cc1; NMePhe(4-Cl) = CN[C@@H](Cc1ccc(Cl)cc1)C(=O)O; Phe(4-Cl) = N[C@@H](Cc1ccc(Cl)cc1)C(=O)O; NMeY = CN[C@@H](Cc1ccc(O)cc1)C(=O)O; dNMeY = CN[C@H](Cc1ccc(O)cc1)C(=O)O; NMeT = CN[C@H](C(=O)O)[C@@H](C)O; dCit = NC(=O)NCCC[C@@H](N)C(=O)O; Nicotinoyl = O=C(c1cccnc1)*; NMeC = CN[C@@H](CS)C(=O)O; dNMeC = CN[C@H](CS)C(=O)O; dDap = NC[C@@H](N)C(=O)O

Target: somatostatin receptor type 2 (SSTR2) (UniProt P30874 1-369)
Sequence (P30874 whole entry): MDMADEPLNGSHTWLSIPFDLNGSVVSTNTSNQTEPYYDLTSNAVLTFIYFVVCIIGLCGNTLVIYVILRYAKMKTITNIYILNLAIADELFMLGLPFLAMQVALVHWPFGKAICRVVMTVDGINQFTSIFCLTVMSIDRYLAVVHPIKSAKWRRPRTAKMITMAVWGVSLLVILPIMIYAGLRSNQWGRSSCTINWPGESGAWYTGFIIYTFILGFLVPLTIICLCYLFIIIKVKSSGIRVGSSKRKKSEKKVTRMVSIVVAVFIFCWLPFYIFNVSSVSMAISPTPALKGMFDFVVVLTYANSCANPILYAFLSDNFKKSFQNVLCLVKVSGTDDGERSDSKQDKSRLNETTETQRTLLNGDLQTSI
Assay: cell-based or functional assay

B1: Compound 25: H-Cpa-cyclo[D-Cys-Tyr-D-Phe(4-phenylureido)-Lys(Nε-Me)-Thr-Cys]-D-Tyr-NH2 (peptide)
peptide: H-[Phe(4-Cl)][dC]Y[dPhe(4-phenylureido)]K(Me)TC[dY]-NH2
modifications: disulfide 2-7
SMILES: CNCCCC[C@@H]1NC(=O)[C@@H](Cc2ccc(NC(=O)Nc3ccccc3)cc2)NC(=O)[C@H](Cc2ccc(O)cc2)NC(=O)[C@H](NC(=O)[C@@H](N)Cc2ccc(Cl)cc2)CSSC[C@@H](C(=O)N[C@H](Cc2ccc(O)cc2)C(N)=O)NC(=O)[C@H]([C@@H](C)O)NC1=O
IC50 (PathHunter β-Arrestin, antagonist mode): 2.32 nM

B2: Compound 29: H-Cpa-cyclo[DCys-Tyr-D-(4-carbamoyl)Phe-Arg-Thr-Cys]-DTyr-NH2 (peptide)
peptide: XXYXRTCX
HELM: PEPTIDE1{[N[C@@H](Cc1ccc(Cl)cc1)C(=O)[*:2]].[dC].Y.[NC(=O)c1ccc(C[C@@H](N[*:1])C(=O)[*:2])cc1].R.T.C.[dY].[am]}$PEPTIDE1,PEPTIDE1,2:R3-7:R3$$$V2.0
SMILES: C[C@@H](O)[C@@H]1NC(=O)[C@H](CCCNC(=N)N)NC(=O)[C@@H](Cc2ccc(C(N)=O)cc2)NC(=O)[C@H](Cc2ccc(O)cc2)NC(=O)[C@H](NC(=O)[C@@H](N)Cc2ccc(Cl)cc2)CSSC[C@@H](C(=O)N[C@H](Cc2ccc(O)cc2)C(N)=O)NC1=O
IC50 (PathHunter β-Arrestin, antagonist mode): 398 nM

B6: Compound 79: H-Cpa-[DCys-Tyr-DPhe(4-carbamoyl)-Lys-Thr-Cys]-NMeDTyr-NH2 (peptide)
peptide: H-[Phe(4-Cl)][dC]Y[dPhe(4-CONH2)]KTC[dNMeY]-NH2
modifications: disulfide 2-7
SMILES: C[C@@H](O)[C@@H]1NC(=O)[C@H](CCCCN)NC(=O)[C@@H](Cc2ccc(C(N)=O)cc2)NC(=O)[C@H](Cc2ccc(O)cc2)NC(=O)[C@H](NC(=O)[C@@H](N)Cc2ccc(Cl)cc2)CSSC[C@@H](C(=O)N(C)[C@H](Cc2ccc(O)cc2)C(N)=O)NC1=O
IC50 (PathHunter β-Arrestin, antagonist mode): 28.7 nM

B8: Compound 78: H-Cpa-[NMeDCys-Tyr-DPhe(4-carbamoyl)-Lys-Thr-Cys]-DTyr-NH2 (peptide)
peptide: H-[Phe(4-Cl)][dNMeC]Y[dPhe(4-CONH2)]KTC[dY]-NH2
modifications: disulfide 2-7
SMILES: C[C@@H](O)[C@@H]1NC(=O)[C@H](CCCCN)NC(=O)[C@@H](Cc2ccc(C(N)=O)cc2)NC(=O)[C@H](Cc2ccc(O)cc2)NC(=O)[C@H](N(C)C(=O)[C@@H](N)Cc2ccc(Cl)cc2)CSSC[C@@H](C(=O)N[C@H](Cc2ccc(O)cc2)C(N)=O)NC1=O
IC50 (PathHunter β-Arrestin, antagonist mode): 6.79 nM

B12: Compound 30: H-Cpa-cyclo[D-Cys-Tyr-D-Lys(Nε-nicotinoyl)-Lys(Nε-Me)-Thr-Cys]-D-Tyr-NH2 (peptide)
peptide: H-[Phe(4-Cl)][dC]Y[dK](Nicotinoyl)K(Me)TC[dY]-NH2
modifications: disulfide 2-7
SMILES: CNCCCC[C@@H]1NC(=O)[C@@H](CCCCNC(=O)c2cccnc2)NC(=O)[C@H](Cc2ccc(O)cc2)NC(=O)[C@H](NC(=O)[C@@H](N)Cc2ccc(Cl)cc2)CSSC[C@@H](C(=O)N[C@H](Cc2ccc(O)cc2)C(N)=O)NC(=O)[C@H]([C@@H](C)O)NC1=O
IC50 (PathHunter β-Arrestin, antagonist mode): 177 nM

B14: Compound 73: H-Cpa-[DCys-Tyr-DPhe(4-carbamoyl)-Lys-NMeThr-Cys]-DTyr-NH2 (peptide)
peptide: XXYXKXCX
HELM: PEPTIDE1{[N[C@@H](Cc1ccc(Cl)cc1)C(=O)[*:2]].[dC].Y.[NC(=O)c1ccc(C[C@@H](N[*:1])C(=O)[*:2])cc1].K.[meT].C.[dY].[am]}$PEPTIDE1,PEPTIDE1,2:R3-7:R3$$$V2.0
SMILES: C[C@@H](O)[C@H]1C(=O)N[C@H](C(=O)N[C@H](Cc2ccc(O)cc2)C(N)=O)CSSC[C@@H](NC(=O)[C@@H](N)Cc2ccc(Cl)cc2)C(=O)N[C@@H](Cc2ccc(O)cc2)C(=O)N[C@H](Cc2ccc(C(N)=O)cc2)C(=O)N[C@@H](CCCCN)C(=O)N1C
IC50 (PathHunter β-Arrestin, antagonist mode): 547 nM

B15: Compound 26: H-Cpa-cyclo[DCys-Tyr-D-(4-carbamoyl)Phe-(N-Acetyl)Lys-Thr-Cys]-DTyr-NH2 (peptide)
peptide: XXYXXTCX
HELM: PEPTIDE1{[N[C@@H](Cc1ccc(Cl)cc1)C(=O)[*:2]].[dC].Y.[NC(=O)c1ccc(C[C@@H](N[*:1])C(=O)[*:2])cc1].K.T.C.[dY].[am]}|PEPTIDE2{[ac]}$PEPTIDE1,PEPTIDE2,5:R3-1:R2|PEPTIDE1,PEPTIDE1,2:R3-7:R3$$$V2.0
SMILES: CC(=O)NCCCC[C@@H]1NC(=O)[C@@H](Cc2ccc(C(N)=O)cc2)NC(=O)[C@H](Cc2ccc(O)cc2)NC(=O)[C@H](NC(=O)[C@@H](N)Cc2ccc(Cl)cc2)CSSC[C@@H](C(=O)N[C@H](Cc2ccc(O)cc2)C(N)=O)NC(=O)[C@H]([C@@H](C)O)NC1=O
IC50 (PathHunter β-Arrestin, antagonist mode): > 1000 nM

B16: Compound 77: H-(N-Me)Cpa-cyclo[D-Cys-Tyr-D-Phe(4-carbamoyl)-Lys-Thr-Cys]-D-Tyr-NH2 (peptide)
peptide: XXYXKTCX
HELM: PEPTIDE1{[CN[C@@H](Cc1ccc(Cl)cc1)C(=O)[*:2]].[dC].Y.[NC(=O)c1ccc(C[C@@H](N[*:1])C(=O)[*:2])cc1].K.T.C.[dY].[am]}$PEPTIDE1,PEPTIDE1,2:R3-7:R3$$$V2.0
SMILES: CN[C@@H](Cc1ccc(Cl)cc1)C(=O)N[C@@H]1CSSC[C@@H](C(=O)N[C@H](Cc2ccc(O)cc2)C(N)=O)NC(=O)[C@H]([C@@H](C)O)NC(=O)[C@H](CCCCN)NC(=O)[C@@H](Cc2ccc(C(N)=O)cc2)NC(=O)[C@H](Cc2ccc(O)cc2)NC1=O
IC50 (PathHunter β-Arrestin, antagonist mode): 2.25 nM

Further lines, results first:

IC50 (PathHunter β-Arrestin, antagonist mode): 2.46 nM
Binder: H-[Phe(4-Cl)][dC]Y[dPhe(4-CONH2)]K(diMe)TC[dY]-NH2 (disulfide 2-7) [Compound 32: H-Cpa-cyclo[D-Cys-Tyr-D-Phe(4-carbamoyl)-Lys(N-diMe)-Thr-Cys]-D-Tyr-NH2]

IC50 (PathHunter β-Arrestin, antagonist mode): 159 nM
B3: Compound 74: H-Cpa-[DCys-NMeTyr-DPhe(4-carbamoyl)-Lys-Thr-Cys]-DTyr-NH2 (peptide)
peptide: XXXXKTCX
HELM: PEPTIDE1{[N[C@@H](Cc1ccc(Cl)cc1)C(=O)[*:2]].[dC].[meY].[NC(=O)c1ccc(C[C@@H](N[*:1])C(=O)[*:2])cc1].K.T.C.[dY].[am]}$PEPTIDE1,PEPTIDE1,2:R3-7:R3$$$V2.0
SMILES: C[C@@H](O)[C@@H]1NC(=O)[C@H](CCCCN)NC(=O)[C@@H](Cc2ccc(C(N)=O)cc2)NC(=O)[C@H](Cc2ccc(O)cc2)N(C)C(=O)[C@H](NC(=O)[C@@H](N)Cc2ccc(Cl)cc2)CSSC[C@@H](C(=O)N[C@H](Cc2ccc(O)cc2)C(N)=O)NC1=O

IC50 (PathHunter β-Arrestin, antagonist mode): > 1000 nM
B4: Compound 75: H-Cpa-[DCys-NMeTyr-DPhe(4-carbamoyl)-Lys-NMeThr-Cys]-DTyr-NH2 (peptide)
peptide: XXXXKXCX
HELM: PEPTIDE1{[N[C@@H](Cc1ccc(Cl)cc1)C(=O)[*:2]].[dC].[meY].[NC(=O)c1ccc(C[C@@H](N[*:1])C(=O)[*:2])cc1].K.[meT].C.[dY].[am]}$PEPTIDE1,PEPTIDE1,2:R3-7:R3$$$V2.0
SMILES: C[C@@H](O)[C@H]1C(=O)N[C@H](C(=O)N[C@H](Cc2ccc(O)cc2)C(N)=O)CSSC[C@@H](NC(=O)[C@@H](N)Cc2ccc(Cl)cc2)C(=O)N(C)[C@@H](Cc2ccc(O)cc2)C(=O)N[C@H](Cc2ccc(C(N)=O)cc2)C(=O)N[C@@H](CCCCN)C(=O)N1C

IC50 (PathHunter β-Arrestin, antagonist mode): 400 nM
B5: Compound 76: H-Cpa-[DCys-Tyr-DPhe(4-carbamoyl)-Lys-Thr-NMeCys]-DTyr-NH2 (peptide)
peptide: H-[Phe(4-Cl)][dC]Y[dPhe(4-CONH2)]KT[NMeC][dY]-NH2
modifications: disulfide 2-7
SMILES: C[C@@H](O)[C@@H]1NC(=O)[C@H](CCCCN)NC(=O)[C@@H](Cc2ccc(C(N)=O)cc2)NC(=O)[C@H](Cc2ccc(O)cc2)NC(=O)[C@H](NC(=O)[C@@H](N)Cc2ccc(Cl)cc2)CSSC[C@@H](C(=O)N[C@H](Cc2ccc(O)cc2)C(N)=O)N(C)C1=O

IC50 (PathHunter β-Arrestin, antagonist mode): 5.77 nM
B7: Compound 72: H-Cpa-cyclo[DCys-Tyr-D-(4-carbamoyl)Phe-(N-alpha-Me)Lys-Thr-Cys]-DTyr-NH2 (peptide)
peptide: XXYXXTCX
HELM: PEPTIDE1{[N[C@@H](Cc1ccc(Cl)cc1)C(=O)[*:2]].[dC].Y.[NC(=O)c1ccc(C[C@@H](N[*:1])C(=O)[*:2])cc1].[meK].T.C.[dY].[am]}$PEPTIDE1,PEPTIDE1,2:R3-7:R3$$$V2.0
SMILES: C[C@@H](O)[C@@H]1NC(=O)[C@H](CCCCN)N(C)C(=O)[C@@H](Cc2ccc(C(N)=O)cc2)NC(=O)[C@H](Cc2ccc(O)cc2)NC(=O)[C@H](NC(=O)[C@@H](N)Cc2ccc(Cl)cc2)CSSC[C@@H](C(=O)N[C@H](Cc2ccc(O)cc2)C(N)=O)NC1=O

IC50 (PathHunter β-Arrestin, antagonist mode): 13.3 nM
B9: Compound 71: H-Cpa-cyclo[DDap-Tyr-DPhe(4-CONH2)-Lys(Me)-Thr-Asp]-DTyr-NH2 (peptide)
peptide: H-[Phe(4-Cl)][dDap]Y[dPhe(4-CONH2)]K(Me)TD[dY]-NH2
modifications: lactam 2-7; not fully specified; printed as H-Cpa-cyclo[DDap-Tyr-DPhe(4-CONH2)-Lys(Me)-Thr-Asp]-DTyr-NH2

IC50 (PathHunter β-Arrestin, antagonist mode): 34.7 nM
Binder: H-[Phe(4-Cl)][dC]Y[dPhe(4-benzamidophenyl)]KTC[dY]-NH2 (disulfide 2-7) [Compound 27: H-Cpa-cyclo[DCys-Tyr-D-(4-Benzamidophenyl)Phe-Lys-Thr-Cys]-DTyr-NH2]

IC50 (PathHunter β-Arrestin, antagonist mode): 70.4 nM
B10: Compound 31: H-Cpa-cyclo[DCys-Tyr-D-Cit-(N-Me)Lys-Thr-Cys]-DTyr-NH2 (peptide)
peptide: H-[Phe(4-Cl)][dC]Y[dCit]K(Me)TC[dY]-NH2
modifications: disulfide 2-7
SMILES: CNCCCC[C@@H]1NC(=O)[C@@H](CCCNC(N)=O)NC(=O)[C@H](Cc2ccc(O)cc2)NC(=O)[C@H](NC(=O)[C@@H](N)Cc2ccc(Cl)cc2)CSSC[C@@H](C(=O)N[C@H](Cc2ccc(O)cc2)C(N)=O)NC(=O)[C@H]([C@@H](C)O)NC1=O

IC50 (PathHunter β-Arrestin, antagonist mode): 104 nM
B11: Compound 28: H-Cpa-cyclo[DCys-Tyr-D-(4-(4-methoxyphenyl)ureido)Phe-Lys-Thr-Cys]-DTyr-NH2 (peptide)
peptide: XXYXKTCX
HELM: PEPTIDE1{[N[C@@H](Cc1ccc(Cl)cc1)C(=O)[*:2]].[dC].Y.[COc1ccc(NC(=O)Nc2ccc(C[C@@H](N[*:1])C(=O)[*:2])cc2)cc1].K.T.C.[dY].[am]}$PEPTIDE1,PEPTIDE1,2:R3-7:R3$$$V2.0
SMILES: COc1ccc(NC(=O)Nc2ccc(C[C@H]3NC(=O)[C@H](Cc4ccc(O)cc4)NC(=O)[C@H](NC(=O)[C@@H](N)Cc4ccc(Cl)cc4)CSSC[C@@H](C(=O)N[C@H](Cc4ccc(O)cc4)C(N)=O)NC(=O)[C@H]([C@@H](C)O)NC(=O)[C@H](CCCCN)NC3=O)cc2)cc1

IC50 (PathHunter β-Arrestin, antagonist mode): > 1000 nM
B13: Compound 80: H-NMeCpa-[DCys-NMeTyr-DPhe(4-carbamoyl)-Lys-NMeThr-Cys]-NMeDTyr-NH2 (peptide)
peptide: H-[NMePhe(4-Cl)][dC][NMeY][dPhe(4-CONH2)]K[NMeT]C[dNMeY]-NH2
modifications: disulfide 2-7
SMILES: CN[C@@H](Cc1ccc(Cl)cc1)C(=O)N[C@@H]1CSSC[C@@H](C(=O)N(C)[C@H](Cc2ccc(O)cc2)C(N)=O)NC(=O)[C@H]([C@@H](C)O)N(C)C(=O)[C@H](CCCCN)NC(=O)[C@@H](Cc2ccc(C(N)=O)cc2)NC(=O)[C@H](Cc2ccc(O)cc2)N(C)C1=O
